# Assay results: publication PMC2132560 (The Journal of Cell Biology, 1997)
# B1: GST-transportin1 fusion protein (natural protein)
# chain: MEYEWKPDEQGLQQILQLLKESQSPDTTIQRTVQQKLEQLNQYPDFNNYLIFVLTKLKSEDEPTRSLSGLILKNNVKAHFQNFPNGVTDFIKSECLNNIGDSSPLIRATVGILITTIASKGELQNWPDLLPKLCSLLDSEDYNTCEGAFGALQKICEDSAEILDSDVLDRPLNIMIPKFLQFFKHSSPKIRSHAVACVNQFIISRTQALMLHIDSFIENLFALAGDEEPEVRKNVCRALVMLLEVRMDRLLPHMHNIVEYMLQRTQDQDENVALEACEFWLTLAEQPICKDVLVRHLPKLIPVLVNGMKYSDIDIILLKGDVEEDETIPDSEQDIRPRFHRSRTVAQQHDEDGIEEEDDDDDEIDDDDTISDWNLRKCSAAALDVLANVYRDELLPHILPLLKELLFHHEWVVKESGILVLGAIAEGCMQGMIPYLPELIPHLIQCLSDKKALVRSITCWTLSRYAHWVVSQPPDTYLKPLMTELLKRILDSNKRVQEAACSAFATLEEEACTELVPYLAYILDTLVFAFSKYQHKNLLILYDAIGTLADSVGHHLNKPEYIQMLMPPLIQKWNMLKDEDKDLFPLLECLSSVATALQSGFLPYCEPVYQRCVNLVQKTLAQAMLNNAQPDQYEAPDKDFMIVALDLLSGLAEGLGGNIEQLVARSNILTLMYQCMQDKMPEVRQSSFALLGDLTKACFQHVKPCIADFMPILGTNLNPEFISVCNNATWAIGEISIQMGIEMQPYIPMVLHQLVEIINRPNTPKTLLENTAITIGRLGYVCPQEVAPMLQQFIRPWCTSLRNIRDNEEKDSAFRGICTMISVNPSGVIQDFIFFCDAVASWINPKDDLRDMFCKILHGFKNQVGDENWRRFSDQFPLPLKERLAAFYGV
# Assays:
# [1] = target: B1; experiment: native gel or EMSA
# RanGTP = RanGTP (UniProt P62826 1-216); experiment: native gel or EMSA
Binder,binding result [1],binding result (RanGTP)
"recombinant hnRNP A1 protein (natural protein, human, UniProt P09651-2 1-320, looked up) MSKSESPKEPEQLRKLFIGGLSFETTDESLRSHFEQWGTLTDCVVMRDPNTKRSRGFGFVTYATVEEVDAAMNARPHKVDGRVVEPKRAVSREDSQRPGAHLTVKKIFVGGIKEDTEEHHLRDYFEQYGKIEVIEIMTDRGSGKKRGFAFVTFDDHDSVDKIVIQKYHTVNGHNCEVRKALSKQEMASASSSQRGRSGSGNFGGGRGGGFGGNDNFGRGGNFSGRGGFGGSRGGGGYGGSGDGYNGFGNDGSNFGGGGSYNDFGNYNNQSSNFGPMKGGNFGGRSSGPYGGGGQYFAKPRNQGGYGGSSSSSSYGSGRRF",binds,
B1,,binds
